Assay results from the supplement of paper PMC7877785.
± gives the uncertainty stated by the source.

Test: self-splicing fitness, log relative to wild type (ln ratio); higher = more splicing; Tetrahymena group I intron in knt gene, E. coli kanamycin selection, DiMSum; sequences stand for … in CUCUCU…GGAGGGAAAAGUUAUCAGGCAUGCACCUGGUAGCUAGUCUUUAAACCAAUAGAUUGCAUCGGUUUAAAAGGCAAGACCGUCAAAUUGCGGGAAAGGGGUCAACAGCCGUUCAGUACCAAGUCUCAGGGGAAACUUUGAGAUGGCCUUGCAAAGGGUAUGGUAAUAAGCUGACGGACAUGGUCCUAACCACGCAGCCAAGUCCUAAGUCAACAGAUCUUCUGUUGAUAUGGAUGCAGUUCACAGACUAAAUGUCGGUCGGGGAAGAUGUAUUCUUCUCAUAAGAUAUAGUCGGACCUCUCCUUAAUGGGAGCUAGCGGAUGAAGUGAUGCAACACUGGAGCCGCUGGGAACUAAUUUGUAUGCGAAAGUAUAUUGAUUAGUUUUGGAGUACUCGUGGUCG
In short: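 Colonies from six replicate transformations of E. coli BL21(DE3) were pooled and amplicon-sequenced on an Illumina HiSeq 2500. The library placed an intron with all eight P1ex-region nucleotides randomised inside the knt kanamycin-resistance gene on pET-22b(+), and cells grew overnight at 37°C or 30°C on LB agar with or without 25 μg/mL kanamycin (plus 100 μg/mL carbenicillin, 50 μM IPTG, 0.2% rhamnose). Fitness is the DiMSum error-weighted combination of wild-type-normalised replicate fold changes, kanamycin versus none.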

Sequence | self-splicing fitness (ln) (30 °C) | self-splicing fitness (ln) (37 °C)
GAUGAGCAAUAUUACGGCAU | -1.71 ± 0.29 | -1.79 ± 0.39
CUUGAGCAAUAUUACGGGUG | -1.24 ± 0.072 | -0.485 ± 0.078
GGUGAGCAAUAUUACGACUU | -0.531 ± 0.11 | 0.294 ± 0.12
UGCGAGCAAUAUUACGCUAG | -2.68 ± 0.45 | –
UCGCAGCAAUAUUACGGCCG | -0.546 ± 0.12 | -0.522 ± 0.18
GCCGAGCAAUAUUACGGAGU | -2.42 ± 0.18 | -1.56 ± 0.12
CCCCAGCAAUAUUACGAGCC | -3.75 ± 0.26 | -2.54 ± 0.25
ACAGAGCAAUAUUACGGAAG | -3.52 ± 0.22 | -2.12 ± 0.22
GGAGAGCAAUAUUACGGCCA | -2.34 ± 0.36 | -1.21 ± 0.35
AGAGAGCAAUAUUACGUCCU | -2.25 ± 0.12 | -0.89 ± 0.13
GGCUAGCAAUAUUACGUCAU | -1.5 ± 0.082 | -0.278 ± 0.086
GAUGAGCAAUAUUACGGUGU | -3.67 ± 0.22 | -1.15 ± 0.13
AGGGAGCAAUAUUACGUGUU | -2.63 ± 0.31 | -1.73 ± 0.29
CGCCAGCAAUAUUACGUGGU | -3.15 ± 0.18 | -3.22 ± 0.26
AUCUAGCAAUAUUACGGACG | -0.422 ± 0.07 | 0.212 ± 0.094
CUUGAGCAAUAUUACGGUGA | -3.34 ± 0.27 | -2 ± 0.25
AGGCAGCAAUAUUACGUCGU | -0.986 ± 0.058 | -0.962 ± 0.088
UGAUAGCAAUAUUACGCAAC | -3.43 ± 0.44 | –
UCAAAGCAAUAUUACGCUAA | -3.48 ± 0.25 | -2.87 ± 0.27
UACCAGCAAUAUUACGGCCC | -1.19 ± 0.14 | -0.219 ± 0.26
ACGUAGCAAUAUUACGAUAG | -3.45 ± 0.24 | -2.53 ± 0.23
GCCGAGCAAUAUUACGGUCG | -3.63 ± 0.21 | –
AUUUAGCAAUAUUACGUCGA | -2.64 ± 0.29 | -0.501 ± 0.19
GCCAAGCAAUAUUACGUGAA | -0.726 ± 0.068 | 0.0387 ± 0.09
CUCAAGCAAUAUUACGAUUC | -4.11 ± 0.27 | -2.26 ± 0.24
CCAAAGCAAUAUUACGUCCG | -0.225 ± 0.11 | -0.354 ± 0.14

Sequence | self-splicing fitness (ln) (30 °C) | self-splicing fitness (ln) (37 °C)
CUAUAGCAAUAUUACGACCG | 0.239 ± 0.18 | 0.785 ± 0.27
AGAGAGCAAUAUUACGGCAA | – | -1.48 ± 0.4
UCUGAGCAAUAUUACGCCUG | -3.02 ± 0.18 | -2.18 ± 0.2
UGACAGCAAUAUUACGCAUC | -4 ± 0.27 | -1.28 ± 0.2
GCCCAGCAAUAUUACGUUAC | -2.2 ± 0.083 | -0.962 ± 0.087
GUCGAGCAAUAUUACGUUAA | – | -2.06 ± 0.47
UAGCAGCAAUAUUACGUGAA | -1.71 ± 0.16 | -0.671 ± 0.18
AUCCAGCAAUAUUACGGAGA | -2.43 ± 0.14 | -0.986 ± 0.12
ACCCAGCAAUAUUACGUGGU | -3.89 ± 0.11 | -2.76 ± 0.14
AUCUAGCAAUAUUACGAGAC | -4.67 ± 0.42 | -3.22 ± 0.3
UGGGAGCAAUAUUACGUACG | -2.41 ± 0.26 | -2.34 ± 0.21
UCUAAGCAAUAUUACGGACC | -1.71 ± 0.24 | -1.99 ± 0.32
AGUGAGCAAUAUUACGGGUC | -3.17 ± 0.28 | -3.06 ± 0.43
ACGAAGCAAUAUUACGCGUA | -1.27 ± 0.11 | -0.335 ± 0.084
GUACAGCAAUAUUACGAGAA | -2.36 ± 0.45 | -1.51 ± 0.27
CCUUAGCAAUAUUACGUAUA | – | -3.25 ± 0.37
AAACAGCAAUAUUACGCGAU | -2.98 ± 0.16 | -2.42 ± 0.17
CUGUAGCAAUAUUACGGGUU | -3.94 ± 0.23 | -3.13 ± 0.31
UACGAGCAAUAUUACGAGUG | -1.86 ± 0.07 | -1.74 ± 0.1
GCUUAGCAAUAUUACGUGAG | -1.45 ± 0.07 | -1.2 ± 0.071
ACAAAGCAAUAUUACGAAGU | -2.04 ± 0.12 | -2.06 ± 0.18
UGUCAGCAAUAUUACGUACC | -0.242 ± 0.11 | -0.159 ± 0.13
GGAAAGCAAUAUUACGAAUA | -2.36 ± 0.22 | -1.19 ± 0.19
UACUAGCAAUAUUACGGGUU | -2.34 ± 0.18 | -1.78 ± 0.16
AGGGAGCAAUAUUACGGAUU | -4.58 ± 0.38 | -2.67 ± 0.31
GCCAAGCAAUAUUACGUCCC | -0.579 ± 0.15 | -0.607 ± 0.3

Sequence | self-splicing fitness (ln) (30 °C) | self-splicing fitness (ln) (37 °C)
GGAGAGCAAUAUUACGGGAA | -2.58 ± 0.33 | -2.58 ± 0.38
UAGGAGCAAUAUUACGCCCG | -1.53 ± 0.19 | -0.352 ± 0.17
GUAGAGCAAUAUUACGCGAA | -1.12 ± 0.058 | -0.709 ± 0.077
GUACAGCAAUAUUACGUAUU | -3.45 ± 0.14 | -2.45 ± 0.17
UACAAGCAAUAUUACGAAGU | -4.09 ± 0.42 | -1.97 ± 0.24
UUGCAGCAAUAUUACGGUGU | -4.16 ± 0.21 | -2.72 ± 0.18
CAAGAGCAAUAUUACGGCAA | -3.01 ± 0.29 | -3.03 ± 0.38
CUGGAGCAAUAUUACGCUUU | -3.02 ± 0.32 | -3.22 ± 0.47
UAACAGCAAUAUUACGUUAU | -3.22 ± 0.16 | -2.96 ± 0.23
AGAUAGCAAUAUUACGGUCG | -0.105 ± 0.12 | -0.324 ± 0.15
CUACAGCAAUAUUACGCUAA | -2.93 ± 0.28 | -2.29 ± 0.29
GGAAAGCAAUAUUACGUUUU | -3.05 ± 0.14 | -2.18 ± 0.18
AUAUAGCAAUAUUACGUUCG | -1.57 ± 0.2 | -0.377 ± 0.27
GACUAGCAAUAUUACGCGCC | -2.11 ± 0.32 | -0.0214 ± 0.39
AUUAAGCAAUAUUACGCUUG | -1.87 ± 0.11 | -0.856 ± 0.14
UUGUAGCAAUAUUACGAGGC | -3.07 ± 0.27 | -1.77 ± 0.31
UUCCAGCAAUAUUACGUUUA | -0.628 ± 0.083 | -0.59 ± 0.075
UUGCAGCAAUAUUACGCAAU | -3.95 ± 0.42 | -1.86 ± 0.14
UUGGAGCAAUAUUACGGACG | -3.11 ± 0.32 | -1.04 ± 0.34
GAACAGCAAUAUUACGAGGG | -3.29 ± 0.22 | -1.87 ± 0.22
CCCUAGCAAUAUUACGGCAG | -3.47 ± 0.22 | -2.75 ± 0.22
GACCAGCAAUAUUACGAGGA | -1.04 ± 0.12 | -0.408 ± 0.11
UUUAAGCAAUAUUACGGUUA | -1.35 ± 0.12 | -0.505 ± 0.1
UAUGAGCAAUAUUACGGCAG | -1.5 ± 0.25 | -0.674 ± 0.27
GGAUAGCAAUAUUACGGGUU | -2.16 ± 0.096 | -1.42 ± 0.12
